The record followed here is US20050053985A1.

In the experiment the target is 3′-end processing factors. The experiment is described as follows: immunoprecipitation under standard salt conditions.

As to tRNA endonuclease, the percent of the 3′-end processing factors associated is less than 1%.
